Assays:
[1] = target: T1, human folate receptor alpha (hFOLR1) (human, UniProt P15328 25-234); assay: cell-based or functional assay
[2] = target: T2, cynomolgus monkey folate receptor alpha (cynomolgus monkey, UniProt P15328 25-234 (human entry)); assay: FACS, CHO-cFOLR1 cells
T2 construct: Expressed on the surface of stably transfected CHO cells; also called cyno FolR1; CHO-cyno FolR1

[3] = target: T3, murine folate receptor alpha (mouse, UniProt P35846 25-232); assay: FACS, CHO-mFOLR1 cells;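 further: flow cytometry binding of serially diluted test antibodies to transfected CHO cells on ice, mean fluorescence intensity, parental CHO cells give background, Kd from one-site specific binding fit with Hill slope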
T3 construct: Expressed on the surface of stably transfected CHO cells; also called mouse FolR1; CHO-mouse FolR1

[4] = target: T1, human folate receptor alpha (hFOLR1); assay: FACS, CHO-hFOLR1 cells;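 further: flow cytometry of serially diluted antibodies binding CHO cells stably expressing the receptor, 60 min on ice, mixed with dye-tagged parental CHO as background control, one-site specific fit with Hill slope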

T3 sequence (P35846 25-232 limits assumed): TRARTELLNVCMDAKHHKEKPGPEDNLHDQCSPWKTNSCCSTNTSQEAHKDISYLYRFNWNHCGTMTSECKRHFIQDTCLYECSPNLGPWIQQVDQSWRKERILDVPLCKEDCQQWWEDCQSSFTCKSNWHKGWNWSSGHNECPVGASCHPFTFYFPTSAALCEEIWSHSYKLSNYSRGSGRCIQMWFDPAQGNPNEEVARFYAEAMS
T1 sequence (P15328 25-234 limits assumed): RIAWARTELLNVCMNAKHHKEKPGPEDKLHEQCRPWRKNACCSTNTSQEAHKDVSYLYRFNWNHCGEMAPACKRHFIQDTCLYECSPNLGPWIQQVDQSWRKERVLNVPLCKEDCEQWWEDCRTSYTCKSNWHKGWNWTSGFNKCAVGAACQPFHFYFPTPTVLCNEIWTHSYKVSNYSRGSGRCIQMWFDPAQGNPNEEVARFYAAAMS
T2 sequence (P15328 other isoform, or with tags, fused parts or gaps limits assumed): as the sequence (P15328 25-234 limits assumed) above, with I2T, W4R, R37K, Q117R, A146P, H171Y counted along it

| Binder | Bmax (MFI) [2] [MFI] | Kd [2] [nM] | binding result [3] | Bmax (MFI) [4] [MFI] | Kd [4] [nM] | Bmax (MFI) [3] [MFI] | Kd [3] [nM] | Igrov, 2° Antibody Cell Killing, Nb-SC239: EC50 [1] [nM] | Igrov, 2° Antibody Cell Killing, Nb-SC239: Span [1] [%] | KB, 2° Antibody Cell Killing, Nb-239: EC50 [1] [nM] | KB, 2° Antibody Cell Killing, Nb-239: Span [1] [%] |
| --- | --- | --- | --- | --- | --- | --- | --- | --- | --- | --- | --- |
| SRP1848-D04 (antibody, V domains shown, HC variant paired with trastuzumab LC, cell-free expressed, HIS- and FLAG-tagged; also called Antibody 26) VH: EVQLVESGGGLVQPGGSLRLSCAASGFNISHYSIHWVRQAPGKGLEWVGEIYPRDGITDYADSVKGRFTISADTSKNTAYLQMNSLSAEDTAVYYCARGYWFWRSGYGYYLDYWGQGTLVTVSS VL: not shown | 25700 | 2.84 | no binding | 29300 | 2.21 | – | – | 0.068 | 77 | 0.38 | 97 |
| SRP1848-D07 (antibody, V domains shown, HC variant paired with trastuzumab LC, cell-free expressed, HIS- and FLAG-tagged; also called Antibody 28) VH: EVQLVESGGGLVQPGGSLRLSCAASGFNISKYYIHWVRQAPGKGLEWVGGISPNDGYTDYADSVKGRFAISADTSKNTAYLQMNSLRAEDTAVYYCARGFWAWRSGYGYYLDYWGQGTLVTVSS VL: not shown | 24300 | 0.92 | no binding | 25700 | 0.77 | – | – | 0.032 | 71 | 0.075 | 94 |
| SRP1848-F06 (antibody, V domains shown, HC variant paired with trastuzumab LC, cell-free expressed, HIS- and FLAG-tagged; also called Antibody 41) VH: EVQLVESGGGLVQPGGSLRLSCAASGFNISLSYIHWVRQAPGKGLEWVGGISPIDGNTDYADSVKGRFTISADTSKNTAYLQMNSLRAEDTAVYYCARGFWAWRSGYGYYLDYWGQGTLVTVSS VL: not shown | 26500 | 0.86 | no binding | 25600 | 0.87 | – | – | 0.032 | 77 | 0.066 | 94 |
| SRP1848-E05 (antibody, V domains shown, HC variant paired with trastuzumab LC, cell-free expressed, HIS- and FLAG-tagged; also called Antibody 34) VH: EVQLVESGGGLVQPGGSLRVSCAASGFNIGVYYIHWVRQAPGKGLEWVGGITPNDGYTDYADSVKGRFTISADTSKNTAYLQMNSLRAEDTAVYYCARGFWAWRSGYGYYLDYWGQGTLVTVSS VL: not shown | 28200 | 0.55 | no binding | 27300 | 0.46 | – | – | 0.027 | 78 | 0.071 | 95 |
| SRP1848-D09 (antibody, V domains shown, HC variant paired with trastuzumab LC, cell-free expressed, HIS- and FLAG-tagged; also called Antibody 29) VH: EVQLVESGGGLVQPGGSLRLSCAASGFNISNYYIHWVRQAPGKGLEWVGGISPNDGYTDYADSVKGRFTISADTSKNTAYLQMNSLRAEDTAVYYCARGSWSWRHGYGYYLDYWGQGTLVTVSS VL: not shown | 21300 | 0.65 | no binding | 25000 | 0.46 | – | – | 0.023 | 70 | 0.042 | 91 |
| SRP1848-D10 (antibody, V domains shown, HC variant paired with trastuzumab LC, cell-free expressed, HIS- and FLAG-tagged; also called Antibody 30) VH: EVQLVESGGGLVQPGGSLRLSCAASGFNISRNSIHWVRQAPGKGLEWVGWISPNDGTTDYADSVKGRFTISADGSKNTAYLQMNSLRAEDTAVYYCARGAWSWRSGYGYYIDYWGQGTLVTVSS VL: not shown | 20600 | 0.52 | – | 26500 | 0.48 | 1860 | 13 | 0.012 | 54 | 0.016 | 90 |

Continued, in another order:

| Bmax (MFI) [2] [MFI] | Kd [2] [nM] | binding result [3] | Bmax (MFI) [4] [MFI] | Kd [4] [nM] | Bmax (MFI) [3] [MFI] | Kd [3] [nM] | Binder | Igrov, 2° Antibody Cell Killing, Nb-SC239: EC50 [1] [nM] | Igrov, 2° Antibody Cell Killing, Nb-SC239: Span [1] [%] | KB, 2° Antibody Cell Killing, Nb-239: EC50 [1] [nM] | KB, 2° Antibody Cell Killing, Nb-239: Span [1] [%] |
| --- | --- | --- | --- | --- | --- | --- | --- | --- | --- | --- | --- |
| 14900 | 0.19 | – | 25700 | 0.62 | 2740 | 2.6 | SRP1848-F02 (antibody, V domains shown, HC variant paired with trastuzumab LC, cell-free expressed, HIS- and FLAG-tagged; also called Antibody 38) VH: EVQLVESGGGLVQPGGSLRLSCAASGFNIRTYSIHWVRQAPGKGLEWVGSIFPNDGTTDYADSVKGRLTISADTSKNTAYLQMNSLRAEDTAVYYCARGSWSWQAGYGYYLDYWGQGTLVTVSS VL: not shown | 0.009 | 54 | 0.054 | 92 |
| 21500 | 0.43 | – | 25200 | 0.56 | 3750 | 1.8 | SRP1848-F01 (antibody, V domains shown, HC variant paired with trastuzumab LC, cell-free expressed, HIS- and FLAG-tagged; also called Antibody 37) VH: EVQLVESGGGLVQPGGSLRLSCAASGFNIRTYSIHWVRQAPGKGLEWVGSIFPNDGTTDYADSVKGRFTISADTSKNTAYLQMNSLRAEDTAVYYCARGSWAWRAGYSYYLDYWGQGTLVTVSS VL: not shown | 0.018 | 69 | 0.047 | 91 |
| 24700 | 0.61 | – | 27200 | 0.72 | 5100 | 18 | SRP1848-F05 (antibody, V domains shown, HC variant paired with trastuzumab LC, cell-free expressed, HIS- and FLAG-tagged; also called Antibody 40) VH: EVQLVESGGGLVQPGGSLRLSCAASGFNISKSSIHWVRQAPGKGLEWVGEIYPNDGSTDYADSVKGRFTISADTSKNTAYLQMNSLRAEDTAVYYCARGSWAWRSGYSYFLDYWGQGTLVTVSS VL: not shown | 0.015 | 74 | 0.061 | 94 |
| 22200 | 0.45 | – | 26700 | 0.57 | 1360 | 14 | SRP1848-D05 (antibody, V domains shown, HC variant paired with trastuzumab LC, cell-free expressed, HIS- and FLAG-tagged; also called Antibody 27) VH: EVQLVESGGGLVQPGGSLRLSCAASGFNISISYIHWVRQAPGKGLEWVGGISPIDGYTDYADSVKGRFTISADTSKNTAYLQMNSLRAEDTAVYYCARGSWSWRAGYGYYLDYWGQGTLVTVSS VL: not shown | – | 73 | 0.055 | 92 |
| 18700 | 0.59 | – | 23800 | 0.53 | 1470 | 21 | SRP1848-E02 (antibody, V domains shown, HC variant paired with trastuzumab LC, cell-free expressed, HIS- and FLAG-tagged; also called SKP1848-E02; Antibody 32) VH: EVQLVESGGGLVQPGGSLRLSCAASGFNIGKYSIHWVRQAPGKGLEWVGEIYPNDGNTDYADSVKGRFTISADTSKNTAYLQMNSLRAEDTAVYYCARGSWSWRSGYGYYLDYWGQGTLVTVSS VL: not shown | 0.025 | 71 | 0.046 | 93 |
| 20400 | 0.23 | – | 27300 | 0.54 | 11800 | 1.2 | SRP1848-E07 (antibody, V domains shown, HC variant paired with trastuzumab LC, cell-free expressed, HIS- and FLAG-tagged; also called Antibody 36) VH: EVQLVESGGGLVQPGGSLRLSCAASGFNIRKSSIHWVRQAPGKGLEWVGEIFPYDGSTDYADNVKGRFTISADTSKNTAYLQMNSLRAEDTAVYYCARGAWSWRSGYGYYIDYWGQGTLVTVSS VL: not shown | 0.013 | 73 | 0.059 | 94 |
| 22400 | 0.96 | no binding | 26400 | 1.01 | – | – | SRP1848-E01 (antibody, V domains shown, HC variant paired with trastuzumab LC, cell-free expressed, HIS- and FLAG-tagged; also called Antibody 31) VH: EVQLVESGGGLVQPGGSLRLSCAASGFNITNKYIHWVRQAPGKGLEWVGGITPFDGFTDYADSVKGRFTISADTSKNTAYLQMNSLRAEDTAVYYCARGSWSWPAGYGYYQDYWGQGTLVTVSS VL: not shown | 0.029 | 72 | 0.088 | 92 |
